From patent US20180265915A1, “TRANSCRIPTION FACTOR DECOYS” (priority 2008, published 2018)
“Also recorded” adds a separate entry of the source. {P} = phosphate

Tests used:
[1] = tested on: Staphylococcus aureus EMRSA 16; experiment: Mouse sepsis model, tissue burden study; format: in vivo
Procedure: The mouse sepsis study was performed by Euprotec (UK). Mice used in this study, male CD1 mice were supplied by Charles River (Margate UK) and were specific pathogen free (16-18 g at delivery). All mice weighed 22-25 g at the beginning of the experiment.
For the tissue burden study, animals were treated in groups of 8 mice per treatment group, therefore 48 in total for the study. 2×10 ml cultures of Staphylococcus aureus EMRSA 16 were prepared and placed on orbital shaker (220 rpm) overnight at 37° C. The following day, the Staphylococcus aureus EMRSA 16 cultures were removed from shaker, pelleted and washed twice before being resuspended in saline to an OD of 0.132 (1.5×10^8 cfu/ml). This stock solution of Staphylococcus aureus EMRSA 16 was then further diluted 1:1.5 in saline (1×10^8 cfu/ml) i.e. 2.0×10^7 bacteria per mouse. 48 mice were then infected with 0.2 ml of the 1.0×10^8/mL suspension. The number of Staphylococcus aureus EMRSA 16 bacteria per mL in the remainder of the suspensions after inoculation was also counted to confirm infection load. Mice were treated 1, 9 and 17 hours post infection with either compound or vehicle, though vancomycin was only administered after 1h. The treatments were as previously a mixture of TFD/DOTAP/Lysostaphin using a concentration of InM/kg TFD in a 5:1 molar ratio with DOTAP and 63 μg/kg Lysostaphin. After 25 hours post infection all animals were weighed and then euthanized. The kidneys were immediately removed and homogenised in ice cold sterile phosphate buffered saline+0.05% Tween 80. Organ homogenates were quantitatively cultured onto CLED agar and incubated at 37° C. for up to 3 days and colonies counted. The data from the culture burdens was analysed by the Kruskal-Wallis test using Stats Direct.

[2] = tested on: K. pneumoniae; experiment: KP_Sig TFD growth assay in vitro; format: cell-based, Klebsiella pneumoniae; settings: PCR_TFD, transfected using a cell penetrating peptide
Source text: Cells were transfected as described in Example 13, using a cell penetrating peptide. […] The two controls used were: untreated cells (K. pneumoniae) and a control TFD consisting of a scrambled sequence.

[3] = tested on: E. coli; experiment: FabB TFD growth assay with cerulenin in LB, polymixin co-transfectant; format: cell-based, Escherichia coli
Procedure: For example, a FabB decoy which targets the regulation of genes essential for fatty acid synthesis may be tested against suitable strain, e.g. E. coli grown in e.g. Luria-Bertani LB media (1% [w/v] Bacto-tryptone, 0.5% [w/v] Yeast extract, 1% [w/v] NaCl) in the presence of an antibiotic which acts on the process of fatty acid synthesis, e.g. Cerulenin.
The effect of TFDs on the growth of E. coli bacterial cultures was measured as described in Example 4.1 with a few modifications: the media used was LB; the co-transfectant used was 40 nM polymixin, rather than gramicidin; the media was also supplemented with 10 μg/ml Cerulenin (CER). CER is an antibiotic that acts on fatty acid synthesis.

[4] = tested on: EMRSA15; experiment: DB-TFD growth assay on EMRSA15 with Lysostaphin co-treatment; format: cell-based, Staphylococcus aureus; settings: 10 nM DB-TFD; 0.5 to 2.5 pg/ml Lysostaphin
Procedure: Growth assays were performed as described for Example 7.1 with the sole difference being that the media was supplemented with between 0.5 and 2.5 pg/ml Lysostaphin instead of Gramicidin. Lysostaphin is a lysozyme-like enzyme that is specific for the walls of S. aureus.

[5] = tested on: clinically-isolated MRSA strain MRSA-5; experiment: Dumbbell Sig TFD growth assay on a clinically-isolated MRSA strain; format: cell-based, Staphylococcus aureus; settings: 10 nM TFD, dumbbell configuration
Procedure: A growth assay was performed as described in Example 5.1 using the Sig TFD in its dumbbell configuration and a clinically-isolated MRSA strain.

[6] = tested on: EMRSA-16; experiment: WalR_TFD in vitro growth and viable count assays on EMRSA-16; format: cell-based, Staphylococcus aureus; settings: for effect on growth of EMRSA-16 in vitro: 1 nM TFD, DOTAP, Lysostaphin, BHI
Procedure: S. aureus EMRSA16 cultures were grown and maintained in BHI media (Becton Dickenson). Frozen stocks were prepared by mixing equal volumes of a culture in early exponential growth (OD of 0.3 at A600) with 50% glycerol and freezing at −80° C.
TFD-DOTAP complexes were formed by mixing 1 ug of TFD with 2 μg of DOTAP (Roche) and incubating at room temperature for 10 min on the bench. The TFD complex was then mixed with inoculated medium supplemented with 10 ng/ml Lysostaphin (Sigma; L9043), aliquoted into 96 well flat-bottomed plates and growth was analysed by culturing at 37° C. with shaking in a BioTek plate reader.
EMRSA-16, an MRSA strain endemic in UK hospitals, was used in the study (Cox, Mallaghan et al. 1995). TFDs were mixed with a commercially available lipid formulation, DOTAP, and mixed with media inoculated with EMRSA-16 and Lysostaphin. Lysostaphin is a lysozyme agent that acts on the walls of S. aureus, use of it in this experiment was to thin the outer peptidoglycan layer of the bacteria and allow the TFD to transfect the cell following fusion of the DOTAP carrier with the exposed inner membrane of the bacterium. […] The bacteria that were not killed by WalR_TFD treatment were sub-cultured in order to determine whether there was any incidence of resistance. The process was repeated a total of four times and both the reduction in viable counts (FIG. 17B) and in vitro growth curves were recorded (FIG. 17C, black squares: bacteria in fourth passage).
In order to determine whether TFDs killed bacteria on contact or needed prolonged exposure to work, EMRSA-16 were transfected with 1 nM WalR_TFD/DOTAP complex and incubated for 30 minutes before being microdiluted into fresh media, without any TFD complexes or Lysostaphin.

[7] = statistical analysis of in vivo results

CN[C@H](CC(C)C)C(=O)N[C@H]1C(=O)N[C@@H](CC(N)=O)C(=O)N[C@H]2C(=O)N[C@H]3C(=O)N[C@H](C(=O)N[C@H](C(=O)O)c4cc(O)cc(O)c4-c4cc3ccc4O)[C@H](O)c3ccc(c(Cl)c3)Oc3cc2cc(c3O[C@@H]2O[C@H](CO)[C@@H](O)[C@H](O)[C@H]2O[C@H]2C[C@](C)(N)[C@H](O)[C@H](C)O2)Oc2ccc(cc2Cl)[C@H]1O [Vancomycin, vancomycin, reference compound]
Kruskal-Wallis all pairwise comparisons (Dwass-Steel-Chritchlow-Fligner) of kidney burden, versus Vehicle [1, 7]: 0.0173

KP_Sig: sigma 54 binding site from the K. pneumoniae glnA promoter, SEQ ID NO: 59, in a PCR_TFD (DNA TGGCACAGATTTCGCT; listed as DNA, chemistry not fully specified; listed as Klebsiella pneumoniae)
effect on K. pneumoniae cell growth in vitro [2]: prevented cell growth in vitro
effect on K. pneumoniae cell growth in vitro ([2]; listed as KP_Sig TFD): kills K. pneumoniae in vitro

C/C=C/C/C=C/CCC(=O)[C@H]1O[C@H]1C(N)=O [cerulenin, reference compound]
effect of cerulenin on growth of E. coli ([3]; 10 μg/ml Cerulenin): no noticeable effect on growth
cerulenin concentration at which it begins to inhibit cell growth ([3]; in the presence of the control TFD): 20 µg/mL

B1: SA3 TFD: Sig dumbbell TFD from phosphorylated oligonucleotides SEQ ID NOs: 40 & 41 (nucleic acid, listed as Staphylococcus aureus)
chain 1: CTTGGTTTTTCCAAGGAAGATTAGAAATTATTTCGATGGGTATATAATA
chain 2: CCGTCTTTTTGACGGTATTATATACCCATCGAAATAATTTCTAATCTTC
modifications: 5' {P}, sugars by position and backbone not given here; further chemistry not fully specified
inhibition of bacterial growth of EMRSA15 [4]: capable of inhibiting bacterial growth
inhibition of cell growth of clinically-isolated MRSA strain [5]: repress the growth

B2: WalR_TFD: dumbbell TFD containing the binding site for the WalR protein as in the lytM promoter, SEQ ID NOs: 48 & 49 (nucleic acid, listed as Staphylococcus aureus)
chain 1: CTTGGTTTTTCCAAGTAATGAATGAGTTTAAAGCCCATGTAAAAGGGGTATCAGTAC
chain 2: CCCTCTTTTTGAGGGGTACTGATACCCCTTTTACATGGGCTTTAAACTCATTCATTA
modifications: dumbbell structure, further chemistry not given here
inhibition of bacterial growth of EMRSA15 [4]: prevents growth of EMRSA15
reduction in kidney burden of EMRSA-16 ([1]; mice, systemic injection 1, 9 and 17 hours post infection, 1 nM TFD complex, compared to Scr_TFD control): as effective as vancomycin in killing EMRSA-16
Kruskal-Wallis all pairwise comparisons (Dwass-Steel-Chritchlow-Fligner) of kidney burden, versus Vancomycin [1, 7]: 0.2549
Kruskal-Wallis all pairwise comparisons (Dwass-Steel-Chritchlow-Fligner) of kidney burden, versus Vehicle [1, 7]: 0.0062
effect on growth of EMRSA-16 in vitro [6]: prevented growth of EMRSA-16
growth after limited contact ([6]; 1 nM, incubated 30 minutes then diluted into fresh media without TFD or Lysostaphin, followed 48 hours): unable to grow; also recorded: no growth was observed
total viable counts, reduction in number of living cells ([6]; after in vitro growth experiment): reduced the number of living cells by five-fold orders of magnitude
bacteriocidal activity against MRSA ([6]; in vitro and in vivo): rapid bacteriocidal activity at nanomolar concentrations
development of resistance to TFD-mediated killing ([6]; surviving bacteria sub-cultured and re-treated, repeated rounds): No resistance mechanism has been detected; also recorded: no evidence for the development of a resistance mechanism

B3: Scr_TFD: TFD containing a scrambled version of the WalR binding site, SEQ ID NOs: 46 & 47 (nucleic acid, listed as Staphylococcus aureus)
chain 1: CTTGGTTTTTCCAAGGTAATATGACAAGATTGTAAATGACCTAGTTGAGAGATGCCA
chain 2: CCCTCTTTTTGAGGGTGGCATCTCTCAACTAGGTCATTTACAATCTTGTCATATTAC
modifications: dumbbell structure, further chemistry not given here
inhibition of bacterial growth of EMRSA15 [4]: no effect
Kruskal-Wallis all pairwise comparisons (Dwass-Steel-Chritchlow-Fligner) of kidney burden, versus 1 nM WalR_TFD [1, 7]: 0.0043
Kruskal-Wallis all pairwise comparisons (Dwass-Steel-Chritchlow-Fligner) of kidney burden, versus Vancomycin [1, 7]: 0.0062
Kruskal-Wallis all pairwise comparisons (Dwass-Steel-Chritchlow-Fligner) of kidney burden, versus Vehicle [1, 7]: 0.7804
effect on growth of EMRSA-16 in vitro [6]: no detectable effect on bacterial growth
